Measured values published in publication PMC4222275, “Biochemical and functional characterization of SpdA, a 2′, 3′cyclic nucleotide phosphodiesterase from Sinorhizobium meliloti” (BMC Microbiology, 2013).

Substrate: Nc1ncnc2c1ncn2[C@@H]1O[C@H](CO)[C@H]2OP(=O)(O)O[C@H]21
Assay: phosphate release with calf intestine phosphatase, Biomol Green
Type: biochemical, Sinorhizobium meliloti
Conditions: 50 mM Tris-HCl pH 8, 5 mM beta-mercaptoethanol, 10 mM NaCl, 25 °C, 1 μM SpdA

B1: SpdA (Sinorhizobium meliloti 1021) (protein)
chain: MTKLIIFSDLHMVPEGETIIGLDPYRRLANGIAHVNRYHADADRVIFAGDLTHRADRASYERLKALLGELTPPAALMIGNHDRRDVFLDVFAEATTDANGFVQQVLDFADCRAILLDTLFAPPYDYPVSHAGHLCDRRLAWLDRQLEEAGGRPALIFMHHPPHISGFAGIDMIRLVNEDDFYALVKRHGNVRHIFAGHVHRTISGSSRGIPFSIFKSPVHQQPMPFDTADASLSVDEPAAYGIALVTGDGVLVHTEDYEIARRDAVGA
notes: C-terminal His6 tag (pET-22b, NdeI-HindIII), tag kept, E. coli BL21(DE3), monomer, metal-free
B1 showed a Km of 3.7 mM and a kcat of 2 s⁻¹.
